± gives the standard deviation of the averaged measurements.
Tested on: ATP
Test: switch fluorescence ratio, 500 uM ATP over buffer (Cy3 cluster intensity, sum of 5 cycles each) (fold (ratio)); higher = stronger signal-on switching upon ATP binding; sequences stand for … in TCGTCGGCAGCGTCAGATGTGTATAAGAGACAGTTTTTTTTTTTTTTTTTTTTTTTTT…TC
Settings: aptamer strand: ATP DNA aptamer (quencher-CACCTGGGGGAGTATTGCGGAGGAAGG + anchor), 100 nM annealed; ATP concentration: 500 uM
How it was run: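 Cy3-labelled switching-strand clusters on a modified Illumina MiSeq flow-cell were annealed to 100 nM quencher-labelled ATP aptamer and imaged first in selection buffer, then after 15 min with 500 uM ATP at 22 °C. NaOH stripping and re-annealing separated each of five buffer/ATP cycles, and clusters outside 100-1000 RFU were excluded. The fluorescence ratio sums target-cycle Cy3 intensity over buffer-cycle Cy3 intensity per cluster and averages it per switch-domain sequence.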
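Also: ATP exposure 15 min at 22 °C before imaging.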

TTCCCAGATG
switch fluorescence ratio: 1.81 ± 0.41

ATGATCAGGG
switch fluorescence ratio: 1.009 ± 0.01

AATTGGTTCG
switch fluorescence ratio: 0.984 ± 0.012

ACCTAGCGCA
switch fluorescence ratio: 1.33 ± 0.045

TTTCGGGCAG
switch fluorescence ratio: 1.02 ± 0.037

CGCGAGAGTT
switch fluorescence ratio: 1.02 ± 0.0018

AGTTGTGTAT
switch fluorescence ratio: 1.01 ± 0.051

AAATCTAGAC
switch fluorescence ratio: 0.998 ± 0.011

GCGGGGTTGG
switch fluorescence ratio: 1.01 ± 0.035

TAAATTTTAG
switch fluorescence ratio: 1.007 ± 0.0026

GATCAGAGGG
switch fluorescence ratio: 1.008 ± 0.01

TGGTAATATC
switch fluorescence ratio: 1.012 ± 0.0024

TTAATAGGTG
switch fluorescence ratio: 1.14 ± 0.015

ACCAGGCAGC
switch fluorescence ratio: 1.12 ± 0.024

TTTCTGTAAG
switch fluorescence ratio: 1.01 ± 0.036

TTTGGGGGTA
switch fluorescence ratio: 1.06 ± 0.068

CTGTCGACTG
switch fluorescence ratio: 1.04 ± 0.017

AATGGATTTG
switch fluorescence ratio: 0.995 ± 0.013

TTTGATAGT
switch fluorescence ratio: 1 ± 0.021

CTGGTGTAGT
switch fluorescence ratio: 1.03 ± 0.047

CAAATGTTAT
switch fluorescence ratio: 1.02 ± 0.0088

CGACGTGCGG
switch fluorescence ratio: 0.9944 ± 0.0062

ATTCCTGGGG
switch fluorescence ratio: 1.05 ± 0.012

AGGGAGTGCT
switch fluorescence ratio: 1.02 ± 0.013

TATTGTCGTT
switch fluorescence ratio: 1.02 ± 0.029

AAACGGGTTC
switch fluorescence ratio: 1.01 ± 0.036

CGGGGTACCT
switch fluorescence ratio: 1.01 ± 0.054

GTGGCCTGGA
switch fluorescence ratio: 1.01 ± 0.025

CCAGGAGGCG
switch fluorescence ratio: 0.999 ± 0.015

TACTGCGGCA
switch fluorescence ratio: 1.04 ± 0.031

GGGTTTTCCG
switch fluorescence ratio: 1.02 ± 0.035

TCCAGTAATA
switch fluorescence ratio: 1.17 ± 0.19

AGCTGTAGTT
switch fluorescence ratio: 1 ± 0.034

TTCACAACCT
switch fluorescence ratio: 1.77 ± 0.36

CCGCTGGGCT
switch fluorescence ratio: 1.83 ± 0.056

TCTACGAAGG
switch fluorescence ratio: 1.034 ± 0.0012

ACTGAGGAAA
switch fluorescence ratio: 1.01 ± 0.046

CAGATAGGTT
switch fluorescence ratio: 1.09 ± 0.14

ATAGGAGAGT
switch fluorescence ratio: 1.003 ± 0.0091

AGCAGGGTGG
switch fluorescence ratio: 1.02 ± 0.038

GGGGGTAAAG
switch fluorescence ratio: 1.01 ± 0.022

CGGGGAGTGG
switch fluorescence ratio: 0.973 ± 0.032

TATCTAGGTT
switch fluorescence ratio: 1 ± 0.02

TATGGTTTCC
switch fluorescence ratio: 1.03 ± 0.05

TCACGGGTTC
switch fluorescence ratio: 1.03 ± 0.031

TGCTCCTGTA
switch fluorescence ratio: 1 ± 0.024

ACTGTTATTT
switch fluorescence ratio: 1.0389 ± 0.00024

GGTGTACGGA
switch fluorescence ratio: 0.972 ± 0.043

TGATATCAAG
switch fluorescence ratio: 0.979 ± 0.013

ATTTGTTATT
switch fluorescence ratio: 1.01 ± 0.024

TTGGAGGGGA
switch fluorescence ratio: 1.01 ± 0.018

TTTGACGGTA
switch fluorescence ratio: 1.09 ± 0.016

CGGGGGACGT
switch fluorescence ratio: 0.9794 ± 0.0085

TGGGTTGGAT
switch fluorescence ratio: 0.99 ± 0.013

ACGGGGTCAC
switch fluorescence ratio: 1.026 ± 0.0017

CAGCTTCCCC
switch fluorescence ratio: 1.29 ± 0.42

TATTATGGGA
switch fluorescence ratio: 0.991 ± 0.035

ATGATGGGGC
switch fluorescence ratio: 0.9536 ± 0.0011

AAGGGAGGGA
switch fluorescence ratio: 1.01 ± 0.036

GGCTGGCATT
switch fluorescence ratio: 1.11 ± 0.15

GTGTGGGATC
switch fluorescence ratio: 1.013 ± 0.0039

TTGGGTGTGC
switch fluorescence ratio: 1.02 ± 0.061

GGTTTTGAGA
switch fluorescence ratio: 1.02 ± 0.029

AATGGGGCCT
switch fluorescence ratio: 1.03 ± 0.02

GCATTTTGGG
switch fluorescence ratio: 0.986 ± 0.033

TTTTACGTTA
switch fluorescence ratio: 1.23 ± 0.11

GTAGGGAACC
switch fluorescence ratio: 0.976 ± 0.025

GGTTGTCCAG
switch fluorescence ratio: 0.9966 ± 0.0014

CGGTGATATT
switch fluorescence ratio: 1.03 ± 0.052

AGTGATGGGG
switch fluorescence ratio: 0.987 ± 0.037

TTTACGAAGT
switch fluorescence ratio: 0.966 ± 0.013

GGGTTATTTG
switch fluorescence ratio: 1.01 ± 0.045

ATCGTACATA
switch fluorescence ratio: 1.12 ± 0.064

GGGGTACGGT
switch fluorescence ratio: 1 ± 0.018

GACGAAATTG
switch fluorescence ratio: 0.99836 ± 0.0003

GCGACGGGT
switch fluorescence ratio: 1.02 ± 0.06

ACGCGCCGGG
switch fluorescence ratio: 1.063 ± 0.0039

TGGCATCTGT
switch fluorescence ratio: 0.972 ± 0.03

AAGAGTACAT
switch fluorescence ratio: 0.993 ± 0.034

CAGGATGTGC
switch fluorescence ratio: 0.992 ± 0.032

ACGGGGTTGC
switch fluorescence ratio: 1.01 ± 0.017

TTCCGGGTTT
switch fluorescence ratio: 1.2 ± 0.31

GGGCCTTTTT
switch fluorescence ratio: 0.9864 ± 0.006

AAAATTAACG
switch fluorescence ratio: 1.04 ± 0.028

GATAGGGTAA
switch fluorescence ratio: 0.988 ± 0.039

TCCAACGGGT
switch fluorescence ratio: 1.03 ± 0.059

CGTTTAGGGA
switch fluorescence ratio: 1.004 ± 0.0026

AGGACAGCAT
switch fluorescence ratio: 1.07 ± 0.023

AAAACGTGGG
switch fluorescence ratio: 1.02 ± 0.022

CGGTTAAGGG
switch fluorescence ratio: 0.982 ± 0.038

CGTGCCCGGT
switch fluorescence ratio: 1.02 ± 0.022

CCGGAAATTT
switch fluorescence ratio: 1.01 ± 0.019

GGAATCAGGA
switch fluorescence ratio: 0.991 ± 0.011

ACGAACGATC
switch fluorescence ratio: 1.35 ± 0.022

TGAAATTTTA
switch fluorescence ratio: 0.9926 ± 0.006

CAGAGGGTGT
switch fluorescence ratio: 1.12 ± 0.032

ATGCCTGGGC
switch fluorescence ratio: 1.03 ± 0.057

GTGTACTGGG
switch fluorescence ratio: 0.993 ± 0.017

TCCAGTAGTT
switch fluorescence ratio: 0.982 ± 0.024

GCCATGGCTT
switch fluorescence ratio: 1.01 ± 0.0039

CACTAAAGAT
switch fluorescence ratio: 1.004 ± 0.0052

TGGGTGTCAC
switch fluorescence ratio: 0.9868 ± 0.005

AGCTCTGCTA
switch fluorescence ratio: 1.02 ± 0.02

GCAGGTTTGG
switch fluorescence ratio: 0.991 ± 0.033

TGACAATGTT
switch fluorescence ratio: 0.994 ± 0.052

CCGGGCGATG
switch fluorescence ratio: 1.6 ± 0.1

AGCGTAGTGG
switch fluorescence ratio: 1.027 ± 0.0061

GCAGGGGGTC
switch fluorescence ratio: 1 ± 0.021

GGGAGTAGGT
switch fluorescence ratio: 1.008 ± 0.0094

ACATGTTGGT
switch fluorescence ratio: 1.02 ± 0.028

GGTACGAACG
switch fluorescence ratio: 1.29 ± 0.045

ATTGGCTACT
switch fluorescence ratio: 0.987 ± 0.013

GGTGGGTGGG
switch fluorescence ratio: 0.999 ± 0.042

AAACGATGTT
switch fluorescence ratio: 1.02 ± 0.055

AAAAATATTT
switch fluorescence ratio: 1.61 ± 0.86

GGGAGGAGGA
switch fluorescence ratio: 0.974 ± 0.026

GGGGTAGCGG
switch fluorescence ratio: 0.92645 ± 0.0002

TTTAAGTCGA
switch fluorescence ratio: 1.02 ± 0.04

GATGTTTGAG
switch fluorescence ratio: 0.991 ± 0.017

GGGAGGGATG
switch fluorescence ratio: 1.02 ± 0.024

TTCGCGGTCT
switch fluorescence ratio: 1.11 ± 0.13

AATCAGGCCT
switch fluorescence ratio: 1.05 ± 0.043

GCAACGGGAG
switch fluorescence ratio: 0.988 ± 0.035

CCATTCATTT
switch fluorescence ratio: 0.991 ± 0.02

GGCATGAGGT
switch fluorescence ratio: 1 ± 0.016

ATTTCTGTTT
switch fluorescence ratio: 1 ± 0.015

GCGGTATATG
switch fluorescence ratio: 1.01 ± 0.027

TAGAGGTCTT
switch fluorescence ratio: 0.98 ± 0.016

ACGCCCACTA
switch fluorescence ratio: 1.38 ± 0.1

AAATCGGGTT
switch fluorescence ratio: 1.15 ± 0.28

AAAATTCTGG
switch fluorescence ratio: 0.973 ± 0.034

TAAGATAGGA
switch fluorescence ratio: 0.982 ± 0.013

GATGAAGGTA
switch fluorescence ratio: 0.991 ± 0.052

CGCATCCCGC
switch fluorescence ratio: 1.37 ± 0.024

GTTAGTTACT
switch fluorescence ratio: 1.01 ± 0.057

TCGGAAGGGC
switch fluorescence ratio: 1.017 ± 0.0027

GATGTGTGTT
switch fluorescence ratio: 0.9735 ± 0.0089

GAAGCGTTTG
switch fluorescence ratio: 0.98 ± 0.039

GTTCGTTAGG
switch fluorescence ratio: 1.017 ± 0.0016

AAGGCGGATT
switch fluorescence ratio: 1.26 ± 0.36

TCAAGAGTTA
switch fluorescence ratio: 0.99 ± 0.035

ATATTCGCAC
switch fluorescence ratio: 1.19 ± 0.063

AAACTAGCGG
switch fluorescence ratio: 1.02 ± 0.016

GTTGCAGCGC
switch fluorescence ratio: 0.982 ± 0.013

TTGTTTCAGG
switch fluorescence ratio: 1.01 ± 0.018

ACGCGGACAC
switch fluorescence ratio: 1.22 ± 0.065

ACGGGTGGCA
switch fluorescence ratio: 0.986 ± 0.019

ACAATGAGTG
switch fluorescence ratio: 1.003 ± 0.0011

CGCCCTTGGG
switch fluorescence ratio: 0.992 ± 0.024

GAGTTAAGGA
switch fluorescence ratio: 1.02 ± 0.03

CGGGAGCGTT
switch fluorescence ratio: 1.12 ± 0.18

TAATAGTATA
switch fluorescence ratio: 1 ± 0.013

TTTTTCAAGT
switch fluorescence ratio: 1.1 ± 0.29

TTGGTTCCGT
switch fluorescence ratio: 1.01 ± 0.026

ATTATATGGG
switch fluorescence ratio: 1.016 ± 0.0029

CGCCCGTTGT
switch fluorescence ratio: 1.01 ± 0.013

TGATGAGGAT
switch fluorescence ratio: 1.007 ± 0.0083

From the supplement of paper PMC10126150
